Publication doi:10.1101/2021.11.20.466133 (bioRxiv, 2021)

Molecular target: the molecule itself
Test: SEC-MALS

B1: Mycobacterium smegmatis c-di-AMP hydrolase (phosphodiesterase) MsPDE (enzyme)
chain: MPVTTTDPKTGLLTGPDAQIAGARVDARGAADLLTAASSVSVICHVYPDADTIGAGLALAQVLAASGKHVEVSFATPAQLPESLQSLPGGHLLVAPEAMRRDADLVVTVDIPSINRLGALSGLAGPGREVLVIDHHASNQLFGTANYIDPSADSTTMLVAELLDAWGKPIDEKVAHCLYAGLTTDTGSFRWATARAHRLAARLVELGVDNASISRTLLDTHPFAWLPMLSRVLATARLLPDALDGRGFVYAVVPHDEWSEARPEEVESIVDIVRTTQQAEVAAVFKEIEPMHWSVSMRAKSVNLASVASAFGGGGHPHAAGYSATGSADDVVQALARALG
stoichiometry N: 2
